According to US6602687B1, “DNA encoding human ciliary neurotrophic factor and method for producing the protein encoded thereby” (Regeneron Pharmaceuticals, Inc., priority 1989, dated 2003):

Legend:
[1] = test system: Ventral spinal cord neurons; test: Neurofilament (NF) assay in ventral spinal cord neuron cultures; format: cell-based, rat; conditions: CNTF 10 ng/ml, NGF 50 ng/ml at plating; day 7
Description: (§1) Sprague-Dawley rats (HSD or Zivic-Miller) were used for all experiments. Pregnant rats (E14) were sacrificed as described in 10.1.1.
Spinal cords were removed aseptically from rat embryos as described in 10.1.2. The cord tissues were minced into small pieces and incubated in 0.1% trypsin (GIBCO) and 0.01% deoxyribonuclease type 1 (Sigma) at 37° C. for 20 minutes. Trypsin solution was then removed, rinsed and replaced with medium consisting of 45% Eagle's minimum essential medium (MEM), 45% Ham's nutrient mixture F12 (F12), 5% fetal calf serum (GIBCO), 5% horse serum (GIBCO) glutamine (2 mM), penicillin G (0.5 U/ml), and streptomycin (0.5 ug/ml). […] Total cell number yielded was determined by hemocytometer counting in the presence of trypan blue. […]
After fixation of the cells in 4% paraformaldehyde at 4° C. for 2 hours, the cultures were then permeabilized and blocked according to the procedures described in Doherty et al. (1984, J. Neurochem. 42:1116-1122). Neurofilament protein was detected using a monoclonal antibody RT97 (Wood and Anderton, 1981, Biosci. Rep. 1:263-268) at a 1:1000 dilution. The reaction product was visualized using O-phenylenediamine (OPD) as a substrate and optical density was measured at 490 nm.

[2] = test system: AchE-containing ventral spinal cord neurons; test: Count of AchE-containing neurons in ventral spinal cord cultures; format: cell-based, rat; conditions: CNTF 10 ng/ml at plating; 7 days
Description: as §1
Spinal cords were removed aseptically from rat embryos as described in 10.1.2. The cord tissues were minced into small pieces and incubated in 0.1% trypsin (GIBCO) and 0.01% deoxyribonuclease type 1 (Sigma) at 37° C. for 20 minutes. Trypsin solution was then removed, rinsed and replaced with medium consisting of 45% Eagle's minimum essential medium (MEM), 45% Ham's nutrient mixture F12 (F12), 5% fetal calf serum (GIBCO), 5% horse serum (GIBCO) glutamine (2 mM), penicillin G (0.5 U/ml), and streptomycin (0.5 ug/ml). This was then mechanically dissociated twice by gentle trituration through a Pasteur pipet in the same medium, and the supernatants were pooled and filtered through a nylon filter (Nitex, Tetko; 40 um). Total cell number yielded was determined by hemocytometer counting in the presence of trypan blue. Dissociated ventral cells were then plated at a density of approximately 50,000 cells/cm^2 on dishes coated with poly-L-ornithine (10 ug/ml) and laminin (5 ug/ml). Treatments were given on the day of plating, except for delayed addition experiments in which treatments were given on days 2 or 6. Cultures were maintained at 37° C. in 95% air/5% CO2 atmosphere at nearly 100% relative humidity. Culture medium was changed every 3 to 4 days. […]

[3] = test system: E18-19 rat hippocampal neurons; test: GAD enzyme activity in hippocampal cultures; format: cell-based; conditions: recombinant rat CNTF 0.1 ng/ml; 8 days
Description: Hippocampi were dissected from E18-19 rat embryos of Sprague-Dawley rats, and collected in F10 medium. The tissues were minced, rinsed twice with F10 medium (Gibco) and trypsinized with 0.25% trypsin (Gibco) for 20 minutes at 37° C. Trypsin was inactivated by the addition of a serum-containing medium composed of minimal essential medium (MEM) supplemented with fetal calf serum (FCS, 10%), glutamine (2 mM), penicillin (25 U/ml) and streptomycin (25 ug/ml). Dissociated cells obtained by gentle trituration were collected and centrifuged at low speed (500 rpm) for 30 seconds. The centrifugation was repeated twice, and the cell pellets were then resuspended in serum-containing medium. The cells were then plated onto 6 mm wells or 35 mm dishes that were coated with polyornithine (10 ug/ml) and laminin (10 ug/ml). In most of the experiments, the cells were plated at a low density of approximately 71,000 cells/cm^2. […]
GAD enzyme activity was determined according to the method of Kimura and Kuriyama (1975, Jpn J. Pharm. 25:189-195) by measuring the release of ^14CO2 from L-[1-^14C] glutamic acid. […] The incubation was then continued for another 60 minutes. ^14CO2 released was trapped in Hyamine base solution, and was counted. […]

B1: CNTF: ciliary neurotrophic factor; recombinant rat CNTF in Sections 10, 15, 17, purified rat sciatic nerve CNTF in Section 11; see endpoint conditions (protein, UniProt P20294 1-200, looked up)
Ciliary neurotrophic factor: MAFAEQTPLTLHRRDLCSRSIWLARKIRSDLTALMESYVKHQGLNKNINLDSVDGVPVASTDRWSEMTEAERLQENLQAYRTFQGMLTKLLEDQRVHFTPTEGDFHQAIHTLMLQVSAFAYQLEELMVLLEQKIPENEADGMPATVGDGGLFEKKLWGLKVLQELSQWTVRSIHDLRVISSHQMGISALESHYGAKDKQM
- increase in NF content versus untreated controls [1]: 2.0 fold
- increase in AchE-positive neurons versus untreated controls [2]: 2.5 fold
- maximal increase in GAD enzyme activity [3]: 3.8 fold
